Values of other authors in publication PMC5319824.
Where “and” joins values, the source holds several entries; their conditions need not be identical. Equal entries are not always repeated. Where two headings read alike, the source gives them in different places.

Legend:
FtsZ (Escherichia coli) [1] = target: FtsZ (Escherichia coli) (UniProt P0A9A6)
FtsZ (Escherichia coli) [2] = target: FtsZ (Escherichia coli) (UniProt P0A9A6); remark: listed apart in the source
FtsZ (Escherichia coli) [3] = target: FtsZ (Escherichia coli) (UniProt P0A9A6); remark: listed apart in the source

Chain of FtsZ (Escherichia coli) (P0A9A6 whole entry): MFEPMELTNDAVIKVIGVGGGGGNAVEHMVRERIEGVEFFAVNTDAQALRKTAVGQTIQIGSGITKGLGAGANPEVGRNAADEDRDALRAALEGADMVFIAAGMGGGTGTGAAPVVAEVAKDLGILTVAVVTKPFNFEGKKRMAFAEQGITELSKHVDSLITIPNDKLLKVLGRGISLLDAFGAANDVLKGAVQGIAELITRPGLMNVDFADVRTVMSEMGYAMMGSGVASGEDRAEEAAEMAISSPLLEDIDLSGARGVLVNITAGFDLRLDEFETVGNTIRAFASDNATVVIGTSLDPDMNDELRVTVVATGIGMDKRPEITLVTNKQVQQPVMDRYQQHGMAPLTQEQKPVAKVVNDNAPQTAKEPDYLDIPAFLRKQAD
Chain of FtsA (P0ABH0 whole entry): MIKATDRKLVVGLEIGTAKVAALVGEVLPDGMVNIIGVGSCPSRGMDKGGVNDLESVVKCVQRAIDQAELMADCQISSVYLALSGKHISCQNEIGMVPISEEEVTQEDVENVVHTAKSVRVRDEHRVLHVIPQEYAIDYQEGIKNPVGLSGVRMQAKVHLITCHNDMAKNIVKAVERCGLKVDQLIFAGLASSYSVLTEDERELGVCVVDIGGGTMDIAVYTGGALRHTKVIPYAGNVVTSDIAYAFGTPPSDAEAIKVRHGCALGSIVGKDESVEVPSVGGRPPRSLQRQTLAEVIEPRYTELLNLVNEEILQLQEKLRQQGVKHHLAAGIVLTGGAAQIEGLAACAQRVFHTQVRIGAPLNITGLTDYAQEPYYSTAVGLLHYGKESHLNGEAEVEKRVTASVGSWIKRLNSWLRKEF

Substance | Kd (FtsZ (Escherichia coli) [1]) | Kd (FtsZ (Escherichia coli) [2]) | Kd (FtsZ (Escherichia coli) [3])
ZipA (from UniProt P77173) | 30 µM and 140 µM | 0.4 µM | 
FtsA (from UniProt P0ABH0) |  |  | > 40 µM
